From PMC9822811 (2023)

Target: recombinant SARS-CoV-2 RBD of original WT strain (SARS-CoV-2, UniProt P0DTC2 319-541)
Experiment: SPR

B1: REGN10987 (antibody, V domains shown)
VH: QVQLVESGGGVVQPGRSLRLSCAASGFTFSNYAMYWVRQAPGKGLEWVAVISYDGSNKYYADSVKGRFTISRDNSKNTLYLQMNSLRTEDTAVYYCASGSDYGDYLLVYWGQGTLVTVSS
VL: QSALTQPASVSGSPGQSITISCTGTSSDVGGYNYVSWYQQHPGKAPKLMIYDVSKRPSGVSNRFSGSKSGNTASLTISGLQSEDEADYYCNSLTSISTWVFGGGTKLTVL
  Kd: 1.62 nM
